Data reported in the RNAGym collection of RNA variant scans (doi:10.1073/pnas.2313332121).
Variants at the floor of the assay were thinned out.

B1: TPR 5TU (parent)
chain: GGAUCUUCUCGAUCUAACAAAAAAGACAAAUCUGCCACAAAGCUUGAGAGCAUCUUCGGAUGCAGAGGCGGCAGCCUUCGGUGGCGCGAUAGCGCCAACGUUCUCAACUAUGACACGCAAAACGCGUGCUCCGUUGAAUGGAGUUUAUCAUG

Variants of: B1
Assay: polymerase ribozyme fitness, log enrichment relative to wild type (log ratio); higher = more active; in vitro selection for triplet polymerase activity
Outline: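 PCR was used to build mutant libraries for each subunit of a heterodimeric triplet polymerase ribozyme, which were then transcribed. A single in vitro selection round, in triplicate, used a frozen incubation at −7 °C and recovered extended constructs by gel excision, streptavidin beads and RT-PCR. Fitness is the logarithm of genotype enrichment relative to wild-type enrichment, averaged over replicates with inverse-variance weights. The logarithm is base 2, and after Illumina sequencing only genotypes with ≥10 input reads and ≥1 read per output were kept.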

| Variant | polymerase ribozyme fitness (log ratio) |
| --- | --- |
| A40U G152A | -2.57 |
| A39U A52C C57U G58C | -3 |
| C38U U56A A60G U78A C79G C85A A119C U135G U151A | ≤ -4.2 |
| A40C C57G C85A U102A | ≤ -4.2 |
| A40G C51U U56A U78A G83C | ≤ -4.2 |
| A39G G70C G92C U135G U145G U148A | ≤ -4.2 |
| A41C G42U A73U G83U U102G G124C A150G | ≤ -4.2 |
| A39U U56A C116U | -2.74 |
| A40U C87G G133U | ≤ -4.2 |
| A41U C57G C123A | -2.99 |
| A41C C76G C96U | ≤ -4.2 |
| A41C C85U G112C | -3.5 |
| A40G G59A U78A G94A C108U | ≤ -4.2 |
| A40U C114G | -3.04 |
| A41C U56A G70U C75G C93U C132U G136C | ≤ -4.2 |
| A40G G71U G86U | ≤ -4.2 |
| A39U A49G G58A G65A U111G A150G | ≤ -4.2 |
| A40C A106U A138G | ≤ -4.2 |
| A40C C51U U55G G74C A89C G92A | ≤ -4.2 |
| A41G U45C C57U G92A C108G | -3.34 |
| A40C A138G U144G | -3.92 |
| A40C U45A G48A A49C U55A G62C U77A C118A U134C A142G | ≤ -4.2 |
| A41U A47C G59U U61A A66U C85G A107C U148C | ≤ -4.2 |
| A40G C54G G74A G83C C105G | ≤ -4.2 |

| Variant | polymerase ribozyme fitness (log ratio) |
| --- | --- |
| A40C A89U C96U C114U G128C U145G | ≤ -4.2 |
| A40G C57G G58A G117C A119U | -1.96 |
| A41C A49C U77C G86C C96U U101G C118G | ≤ -4.2 |
| A41C U44G G46C G84C C123G G128A U145A | ≤ -4.2 |
| A40C U55A | 0.494 |
| A41C U53A | -1.22 |
| A39G C54U G74A G88A U90A A137G | ≤ -4.2 |
| C38U U90C U109C C116A C125G U146G | ≤ -4.2 |
| A40C C76U G86A A115C U135A A142G | -3.94 |
| A40C A47U A60U | -1.07 |
| A41G G74C C75U C76A A91C G92U U134A G141C | ≤ -4.2 |
| A41C A91G G141U | -2.56 |
| A40G A98G A113C | ≤ -4.2 |
| A41U A52G C96A | -3.24 |
| A41G A49C U55C C69A C85U C108U | ≤ -4.2 |
| A39G C54G A106U | ≤ -4.2 |
| A40U C103A U139G U146A | -2.67 |
| A40C C57A G68A G86U A121U | ≤ -4.2 |
| A41G A52G U77G C87U G100C C103G A138G | ≤ -4.2 |
| A41G G92A C99U G126C C149A | ≤ -4.2 |
| A41C G84A U109G | -3.33 |
| A39C G86A G152U | ≤ -4.2 |
| A41G G58U G59C | -0.488 |
| A39U C87U G133U U135G | ≤ -4.2 |

| Variant | polymerase ribozyme fitness (log ratio) |
| --- | --- |
| A40G G67A G94A G100A A107U | ≤ -4.2 |
| C38U U61A | -0.395 |
| A39C A49U C69U C85A C105U | ≤ -4.2 |
| A39U C96U | -2.1 |
| C38U U55A C69G A115G A137G A142G | ≤ -4.2 |
| A41U A47U C99G A107U | ≤ -4.2 |
| A39C U78A G84U U90C | ≤ -4.2 |
| A41U C72G C76U A119G U134G A142U | ≤ -4.2 |
| A41C C79U C95U | -3.78 |
| C38U U101A C103G A121U U144G | -3.85 |
| A40C G42A A52U G81C G84U A97C C118U | ≤ -4.2 |
| A41U A52U U55C A66U | ≤ -4.2 |
| A40U C57U G68C A107G C108U U139A | ≤ -4.2 |
| A40U U44A C57U C76G A91U U134C G136C | ≤ -4.2 |
| A40U U56G C72U A91G | -3.52 |
| A39C C85U | -2.48 |
| A41C A66G G70A A91U C93U C96G | ≤ -4.2 |
| A39U G80U | -3.44 |
| A40C A47U C85G A89G U148G | ≤ -4.2 |
| A40G C85A G133U | ≤ -4.2 |
| A40U G84U G136U | -3.66 |
| A41C G50A U55G U56A G65U G68A U102A G140U | ≤ -4.2 |
| A41C G92U U145A A150C | -2.83 |
| A40G G84U A89U U104G | ≤ -4.2 |

| Variant | polymerase ribozyme fitness (log ratio) |
| --- | --- |
| A39U U104G | -3.71 |
| C38U U61C C87U C96G G136U | ≤ -4.2 |
| A39U C54U A60U C75G C79A U90A | ≤ -4.2 |
| A41C C76A C85G C99A | ≤ -4.2 |
| A40U A60U G70C C76U C96A | ≤ -4.2 |
| A39G U145A | -1.85 |
| A39C G42U C43A G92U U127A A150G | -4.19 |
| A41C C93U | -1.61 |
| A41C G81A G92U G136U | -3.13 |
| A41C G46A U82A C116G | -3.58 |
| A41U C54A G92A | ≤ -4.2 |
| A41C G92U C103U C123G | -1.2 |
| A40G U55A | -2 |
| A40G A49C U53A | ≤ -4.2 |
| A39C U55A C149U | -3.62 |
| A40G G84C U109G A119U U139A G140U G152U | ≤ -4.2 |
| A40U A52U G126U U135G A142G | ≤ -4.2 |
| A41C G59A C69A G84A A107U A137U | ≤ -4.2 |
| A40U U82G G84U C93A C99A U109G G136U | ≤ -4.2 |
| A39G A49G C69U C123G G140C G141U | ≤ -4.2 |
| A39G G48A G59A C96U U102G G128C G141A U144G | ≤ -4.2 |
| A41G G84U C116U G136U | -3.6 |
| A39C G70C A97G | ≤ -4.2 |
| A39G A60C G84A C87G C95G C118G U145G | ≤ -4.2 |

| Variant | polymerase ribozyme fitness (log ratio) |
| --- | --- |
| A41C A49C G92A A106C | ≤ -4.2 |
| A39U A60U G84U | -3.96 |
| A39G U56A G58U G141A | -1.28 |
| A41U A52C C76U | -3.25 |
| A41G U56A G58C C87A C108G G143C | ≤ -4.2 |
| A40U A147G | -3.6 |
| C38U U56A A120G G126U U145C U146G | -3.34 |
| A40U G46A C85A A115G A120G | -4.09 |
| A41C C57A G92A C93A C105U A115C G124A U144A | ≤ -4.2 |
| A40U A41C A60G A98U A150U | 0.591 |
| A41G C57A | 0.0695 |
| A41C C54U G141C | -1.43 |
| A41C C63G G86A A115C | -2.61 |
| A41C G50A A52G A120C | -2.96 |
| A40U U90G C118G G133C U148G | ≤ -4.2 |
| A41C U61G C79U G84C | ≤ -4.2 |
| A40U U104C C108A | ≤ -4.2 |
| A40G C75U C93U A97U | ≤ -4.2 |
| A41U C85A | -3.35 |
| A40G G84A C85G A106G | ≤ -4.2 |
| A40G G71C G74U C93U A98G | ≤ -4.2 |
| A41C U56A G83U U127C G152A | -4.07 |
| A39U A52U G83A U109G | ≤ -4.2 |
| A40G C51A G83A C96U U101G | ≤ -4.2 |

| Variant | polymerase ribozyme fitness (log ratio) |
| --- | --- |
| A41U A49G G58C G92A C95A C123A | ≤ -4.2 |
| A40G C87U A115G | -3.19 |
| A40U A113C | -3.79 |
| A40C A150C | -3.94 |
| A41C A47C G59A A60G C85A U127G A137G | ≤ -4.2 |
| A41G U56G G58U G81A G84A C116U C149U | -1.86 |
| A40U A91G C116U A121U | -2.66 |
| A40C G62U A97G C116G A122U | -1.6 |
| A39U G46U A47C A52C C87U A98G U104G C114A C125U | ≤ -4.2 |
| A40G A41G C63U C76A G83C G152U | ≤ -4.2 |
| A40C G42U | ≤ -4.2 |
| A41C U53A C79A C108U A147C | ≤ -4.2 |
| A41U C57G A120G | -2.19 |
| A40C C54A G59C C87U | -2.96 |
| A40U C51G | -1.26 |
| A40U C51A | -0.707 |
| A41G A52G C69U C93U G94C U146C | -2.71 |
| A41C U53A G58A C63U G94A A107G | ≤ -4.2 |
| A39G U144C | -2.67 |
| A40G G83U G92A C99G A107U | ≤ -4.2 |
| A41G C57U U109G A122U | -2.07 |
| A40G G46U G84U C87U A97U U144A | ≤ -4.2 |
| A40C U44A A49C G65A C75G G84U C118U G128U U130C | ≤ -4.2 |
| A39C G65A A66C C85A G88C G140U | ≤ -4.2 |

| Variant | polymerase ribozyme fitness (log ratio) |
| --- | --- |
| A40C G88A A91G U144G | ≤ -4.2 |
| A41G C57U A89U | 0.785 |
| A41G C54U | 0.979 |
| A39U U77A U78G C85G G86A | ≤ -4.2 |
| A40U G48C U53A U144G | -2.19 |
| A39G G84A | -1.84 |
| A40C G83U A119G | -1.55 |
| A39U C43A U44A U56G G59C G94A C103G U144A | ≤ -4.2 |
| A39C U61A C87U G94U U101C A147U | ≤ -4.2 |
| A39C C63A A119C | -4.05 |
| A41G U55A C57G | 0.000485 |
| A39U G70A G88A U127A U144A | ≤ -4.2 |
| A39G U56A G94U A120U G141C | -3.09 |
| A41G G58A U82G U144A U145C | 0.156 |
| A40G U109G | -3.14 |
| A39C G88C C108G | ≤ -4.2 |
| A39C G86U A91C A150U | ≤ -4.2 |
| A39U A47G U78A A97U | ≤ -4.2 |
| A40C A41C C43U U55G C72U C96U A120U G124C | ≤ -4.2 |
| A40G U45A U55G G68C A91C U102G G126A C149G | ≤ -4.2 |
| A39C A49U G67A A121U | ≤ -4.2 |
| A41G G70A C93U A98U | -3.95 |
| A41C U53C A122C C123A G141U U144G | -3.18 |
